Experimental data as given in patent CN110954697A.

Tests used:
[1] = biological target: 抗PD-1单链抗体与IgG4Fc片段融合蛋白 (anti-PD-1 scFv-IgG4 Fc fusion secreted by Meso3CAR-T-antiPD1 cells); experiment: flow cytometry on Meso3CAR-T-antiPD1 cells; 2 μL PE-labelled anti-IgG4 Fc antibody, read directly (these cells also carry Meso3CAR with an IgG4 CH2CH3 hinge)
[2] = biological target: 抗PD-1单链抗体与IgG4Fc片段融合蛋白 (anti-PD-1 scFv-IgG4 Fc fusion secreted by Meso3CAR-T-antiPD1 cells); experiment: flow cytometry on Meso3CAR-T-antiPD1 cells; 2 μL of 1 mg/mL biotin-labelled reagent, streptavidin-PE

Chain of 抗PD-1单链抗体与IgG4Fc片段融合蛋白 (anti-PD-1 scFv-IgG4 Fc fusion secreted by Meso3CAR-T-antiPD1 cells) (chain, as listed by the source): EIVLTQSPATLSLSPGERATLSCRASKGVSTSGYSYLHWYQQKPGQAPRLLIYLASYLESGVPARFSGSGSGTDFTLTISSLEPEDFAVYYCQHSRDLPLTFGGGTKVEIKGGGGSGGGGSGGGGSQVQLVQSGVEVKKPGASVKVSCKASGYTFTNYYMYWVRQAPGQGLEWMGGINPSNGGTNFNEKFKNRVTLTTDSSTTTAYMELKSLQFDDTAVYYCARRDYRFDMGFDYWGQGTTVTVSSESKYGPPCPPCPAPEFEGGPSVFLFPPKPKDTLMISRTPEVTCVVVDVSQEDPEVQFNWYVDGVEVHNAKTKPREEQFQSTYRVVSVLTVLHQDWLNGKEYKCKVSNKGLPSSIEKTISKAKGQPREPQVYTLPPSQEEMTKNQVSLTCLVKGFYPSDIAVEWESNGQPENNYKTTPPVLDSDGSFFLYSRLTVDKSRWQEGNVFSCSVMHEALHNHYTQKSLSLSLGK

阳性率 (percent positive cells) [1]	阳性细胞的比例 (percent positive cells) [2]	Substance
39.9%	–	PE标记的抗IgG4Fc抗体 (PE-labelled anti-IgG4 Fc antibody), Abcam, 货号 ab99825
–	31.6%	抗PD-1抗体的抗体 (antibody against the anti-PD-1 antibody), 金斯瑞 GenScript, 货号 A01853-40, biotin-labelled
